T1: human phosphoserine phosphatase (PSP) (Homo sapiens, UniProt P78330, N133S)
T1 construct: gene PSPH; EC 3.1.3.3
T1 sequence (P78330 1-225 N133S): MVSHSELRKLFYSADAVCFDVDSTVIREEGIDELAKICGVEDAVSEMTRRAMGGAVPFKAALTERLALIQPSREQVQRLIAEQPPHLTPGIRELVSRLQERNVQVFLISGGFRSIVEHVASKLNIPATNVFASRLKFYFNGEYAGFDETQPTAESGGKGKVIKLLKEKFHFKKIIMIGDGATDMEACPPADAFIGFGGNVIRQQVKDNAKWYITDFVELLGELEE

T2: human phosphoserine phosphatase (PSP) (Homo sapiens, UniProt P78330)
T2 construct: gene PSPH; EC 3.1.3.3
T2 sequence (P78330 1-225): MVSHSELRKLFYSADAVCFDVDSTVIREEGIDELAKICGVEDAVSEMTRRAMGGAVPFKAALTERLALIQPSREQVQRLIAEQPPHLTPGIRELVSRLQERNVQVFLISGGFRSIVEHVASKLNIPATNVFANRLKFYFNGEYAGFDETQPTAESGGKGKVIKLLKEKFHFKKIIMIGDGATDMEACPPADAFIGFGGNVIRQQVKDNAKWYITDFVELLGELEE


Key:
[1] = molecular target: T1, human phosphoserine phosphatase (PSP); experiment: PNP-coupled phosphate release assay (MESG, […] nm); assay type: biochemical; settings: read-out: Asn133Ser
[2] = molecular target: T2, human phosphoserine phosphatase (PSP); experiment: PNP-coupled phosphate release assay (MESG, […] nm); assay type: biochemical; settings: read-out: wild-type
purified protein = substrate: N[C@@H](COP(=O)(O)O)C(=O)O; experiment: purified protein; assay type: biochemical, Homo sapiens; settings: 50 mM HEPES, 100 mM KCl, 3 mM MgCl2, pH 7.0, 37 °C, 170 μM acetyl-CoA in coupling system
[3] = molecular target: the molecule itself; experiment: SEC; Superdex 75 Increase 5/150 GL, 50 mM HEPES pH 7.0, 100 mM KCl, room temperature, protein loaded at 10 uM; apparent mass from a calibration curve; monomer-dimer

Molecule | Km (purified protein) [µM] | kcat (purified protein) [s⁻¹] | kcat/Km (purified protein) [M⁻¹ s⁻¹] | stoichiometry N [3] | also measured
N[C@@H](CO)C(=O)O [L-serine] | – | – | – | – | IC50 [1]: 250 ± 25 µM; IC50 [2]: 290 ± 20 µM
human phosphoserine phosphatase (PSP) (Homo sapiens) (protein, EC 3.1.3.3) MVSHSELRKLFYSADAVCFDVDSTVIREEGIDELAKICGVEDAVSEMTRRAMGGAVPFKAALTERLALIQPSREQVQRLIAEQPPHLTPGIRELVSRLQERNVQVFLISGGFRSIVEHVASKLNIPATNVFANRLKFYFNGEYAGFDETQPTAESGGKGKVIKLLKEKFHFKKIIMIGDGATDMEACPPADAFIGFGGNVIRQQVKDNAKWYITDFVELLGELEE | 42 ± 13 | 38 ± 3 | 900000 | – | –
human phosphoserine phosphatase (PSP) (Homo sapiens; N133S) (protein, EC 3.1.3.3) MVSHSELRKLFYSADAVCFDVDSTVIREEGIDELAKICGVEDAVSEMTRRAMGGAVPFKAALTERLALIQPSREQVQRLIAEQPPHLTPGIRELVSRLQERNVQVFLISGGFRSIVEHVASKLNIPATNVFASRLKFYFNGEYAGFDETQPTAESGGKGKVIKLLKEKFHFKKIIMIGDGATDMEACPPADAFIGFGGNVIRQQVKDNAKWYITDFVELLGELEE | 31 ± 5 | 28 ± 1 | 900000 | – | –
human phosphoserine phosphatase (PSP), wild-type (enzyme, phosphoserine phosphatase (PSP), human, EC 3.1.3.3; gene cloned in the NdeI/BamHI sites of pET28a; also called wt PSP; wild-type PSP; source: E. coli BL21(DE3), purified (published procedure)) SHSELRKLFYSADAVCFDVDSTVIREEGIDELAKICGVEDAVSEMTRRAMGGAVPFKAALTERLALIQPSREQVQRLIAEQPPHLTPGIRELVSRLQERNVQVFLISGGFRSIVEHVASKLNIPATNVFANRLKFYFNGEYAGFDETQPTAESGGKGKVIKLLKEKFHFKKIIMIGDGATDMEACPPADAFIGFGGNVIRQQVKDNAKWYITDFVELLGELEE | – | – | – | 2 | –
Asn133Ser variant of human phosphoserine phosphatase (PSP) (enzyme, phosphoserine phosphatase (PSP), human, EC 3.1.3.3, with the patients' missense variant c.398A > G p.(Asn133Ser); mutated pET28a plasmid prepared by GenScript; Natural variant found in patients and in gnomAD; Same construct as m1 apart from the substitution; also called Asn133Ser PSP; N133S PSP; source: E. coli BL21(DE3), purified (> 90% purity, published procedure)) SHSELRKLFYSADAVCFDVDSTVIREEGIDELAKICGVEDAVSEMTRRAMGGAVPFKAALTERLALIQPSREQVQRLIAEQPPHLTPGIRELVSRLQERNVQVFLISGGFRSIVEHVASKLNIPATNVFASRLKFYFNGEYAGFDETQPTAESGGKGKVIKLLKEKFHFKKIIMIGDGATDMEACPPADAFIGFGGNVIRQQVKDNAKWYITDFVELLGELEE | – | – | – | 2 | –

— publication PMC11139964, “L-serine deficiency: on the properties of the Asn133Ser variant of human phosphoserine phosphatase” (Scientific Reports, 2024)
